The target in test [1] is T1, cynomolgus monkey KLB on CHOK1-cynoKLB cells (cynomolgus monkey, UniProt A0A2K5WB58 1-1044).
T1 construct: whole, on cells; also called monkey KLB antigen
T1 sequence: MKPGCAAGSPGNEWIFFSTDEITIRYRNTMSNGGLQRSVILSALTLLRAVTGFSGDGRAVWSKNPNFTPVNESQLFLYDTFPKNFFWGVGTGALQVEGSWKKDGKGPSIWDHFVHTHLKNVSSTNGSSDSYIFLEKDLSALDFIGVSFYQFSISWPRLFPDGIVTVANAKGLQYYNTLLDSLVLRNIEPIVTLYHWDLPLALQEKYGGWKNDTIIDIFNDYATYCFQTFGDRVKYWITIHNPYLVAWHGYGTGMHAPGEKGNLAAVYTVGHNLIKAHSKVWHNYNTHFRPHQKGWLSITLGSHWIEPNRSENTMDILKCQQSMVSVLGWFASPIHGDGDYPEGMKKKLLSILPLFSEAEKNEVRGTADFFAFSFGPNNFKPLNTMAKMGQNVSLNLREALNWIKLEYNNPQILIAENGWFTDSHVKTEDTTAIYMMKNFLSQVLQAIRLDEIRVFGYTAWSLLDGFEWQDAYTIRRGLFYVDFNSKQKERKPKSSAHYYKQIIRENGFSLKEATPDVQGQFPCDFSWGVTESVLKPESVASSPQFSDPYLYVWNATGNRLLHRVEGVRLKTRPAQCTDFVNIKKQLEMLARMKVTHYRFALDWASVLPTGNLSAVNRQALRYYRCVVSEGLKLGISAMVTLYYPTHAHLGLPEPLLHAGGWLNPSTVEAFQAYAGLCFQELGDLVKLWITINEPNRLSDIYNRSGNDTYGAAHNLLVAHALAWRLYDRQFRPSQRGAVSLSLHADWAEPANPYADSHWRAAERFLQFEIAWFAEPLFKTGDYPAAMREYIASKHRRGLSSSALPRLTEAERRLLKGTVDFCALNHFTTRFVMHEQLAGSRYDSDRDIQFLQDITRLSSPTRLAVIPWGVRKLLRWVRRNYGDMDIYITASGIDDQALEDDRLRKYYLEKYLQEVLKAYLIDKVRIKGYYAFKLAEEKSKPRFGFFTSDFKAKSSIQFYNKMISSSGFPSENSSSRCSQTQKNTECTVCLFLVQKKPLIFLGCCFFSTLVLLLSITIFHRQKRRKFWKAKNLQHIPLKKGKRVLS
In words: flow cytometry on CHOK1-cynoKLB cells. As for the experimental part: The binding ability of the antibodies for CHOK1 cell strains CHOK1-hKLB and CHOK1-cynoKLB overexpressing human KLB and monkey KLB (see Example 1 for specific preparation procedure), respectively, was detected by flow cytometry. The specific procedure was as follows: the above cells were cultured in 10% FBS-containing IMDM medium and incubated in an incubator at 37° C. and 5% CO₂ for 2 days. The cells were then added to a cell plate at 1×10⁵ cells per well, centrifuged at 300 g for 5 min, and then washed once with 1% BSA. The antibody diluted in gradient was added to the cell plate at 100 μL per well, and the mixture was incubated at 4° C. for 1 h and washed once with 1% BSA. The diluted (1:400) APC-goat anti-human IgG Fc fluorescent secondary antibody was added at 100 μL per well, and the resulting mixture was incubated at 4° C. for 1 h. The plate was washed three times with 1% BSA, PBS was added at 100 μL per well, and the plate was read.

Test [2] deals with T2, hKLB (R&D, Cat. # 5889-KB) (human, UniProt Q86Z14 53-997, limits assumed).
T2 construct: bought soluble protein; also called KLB protein; human KLB
T2 sequence (looked up): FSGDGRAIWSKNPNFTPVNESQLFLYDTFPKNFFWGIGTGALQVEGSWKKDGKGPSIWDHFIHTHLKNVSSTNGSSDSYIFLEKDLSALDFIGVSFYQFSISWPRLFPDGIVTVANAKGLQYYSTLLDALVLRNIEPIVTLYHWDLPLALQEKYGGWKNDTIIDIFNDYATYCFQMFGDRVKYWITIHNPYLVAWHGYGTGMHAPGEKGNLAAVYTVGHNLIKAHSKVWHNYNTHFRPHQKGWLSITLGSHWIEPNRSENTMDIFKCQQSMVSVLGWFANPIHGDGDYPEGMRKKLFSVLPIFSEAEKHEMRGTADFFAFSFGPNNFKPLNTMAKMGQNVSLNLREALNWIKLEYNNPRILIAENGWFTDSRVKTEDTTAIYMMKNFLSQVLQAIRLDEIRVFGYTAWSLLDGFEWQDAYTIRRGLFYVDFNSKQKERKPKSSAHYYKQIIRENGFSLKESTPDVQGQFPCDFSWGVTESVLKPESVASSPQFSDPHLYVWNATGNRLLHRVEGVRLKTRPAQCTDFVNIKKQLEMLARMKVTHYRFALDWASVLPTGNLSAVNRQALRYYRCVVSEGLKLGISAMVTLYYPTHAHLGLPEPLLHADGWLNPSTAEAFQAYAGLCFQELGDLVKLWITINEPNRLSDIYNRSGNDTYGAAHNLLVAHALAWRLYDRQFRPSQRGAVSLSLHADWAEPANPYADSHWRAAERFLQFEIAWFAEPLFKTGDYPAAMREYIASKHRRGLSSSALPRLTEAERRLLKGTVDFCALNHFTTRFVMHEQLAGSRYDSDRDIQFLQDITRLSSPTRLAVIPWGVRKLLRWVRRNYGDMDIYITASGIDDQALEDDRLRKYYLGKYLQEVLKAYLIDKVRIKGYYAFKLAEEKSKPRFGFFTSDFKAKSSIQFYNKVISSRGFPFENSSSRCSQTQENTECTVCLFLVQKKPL
The test can be described thus: BLI (Octet HTX) competition; KLB+antibody premix on SA sensor; competitor: immobilised Bio-FGF19. As for the experimental part: (§1) Bio-FGF21/Bio-FGF19 (obtained by subjecting FGF21 and FGF19 to Biotin labeling with a Biotin Labeling Kit-NH2 (available from DOJINDO Molecular technologies Inc., LK03), wherein FGF21 is set forth in SEQ ID NO: 76 and FGF19 is set forth in SEQ ID NO: 77) was immobilized to an SA sensor (incubation for 80 s) at a concentration of 2 μg/mL, and the sensor was then transferred to a sample well containing KLB (R&D, 5889-KB-1 mg) or containing KLB+antibody premix (pre-incubation for at least 15 min) for 180 s of binding. The reaction signals were detected in real time using the ForteBio OCTET HTX instrument to obtain a binding curve.

The target in test [3] is human KLB & human FGFR3c on L6 cells (human, UniProt Q86Z14 1-1044; P22607 23-806). In words: cell-based or functional assay.
Test [4] deals with T2, hKLB (R&D, Cat. # 5889-KB). In words: BLI (Octet HTX) competition; KLB+antibody premix on SA sensor; competitor: immobilised Bio-FGF21. As for the experimental part: as §1

Chain of human KLB & human FGFR3c on L6 cells (Q86Z14 whole entry, chain 1 of 2): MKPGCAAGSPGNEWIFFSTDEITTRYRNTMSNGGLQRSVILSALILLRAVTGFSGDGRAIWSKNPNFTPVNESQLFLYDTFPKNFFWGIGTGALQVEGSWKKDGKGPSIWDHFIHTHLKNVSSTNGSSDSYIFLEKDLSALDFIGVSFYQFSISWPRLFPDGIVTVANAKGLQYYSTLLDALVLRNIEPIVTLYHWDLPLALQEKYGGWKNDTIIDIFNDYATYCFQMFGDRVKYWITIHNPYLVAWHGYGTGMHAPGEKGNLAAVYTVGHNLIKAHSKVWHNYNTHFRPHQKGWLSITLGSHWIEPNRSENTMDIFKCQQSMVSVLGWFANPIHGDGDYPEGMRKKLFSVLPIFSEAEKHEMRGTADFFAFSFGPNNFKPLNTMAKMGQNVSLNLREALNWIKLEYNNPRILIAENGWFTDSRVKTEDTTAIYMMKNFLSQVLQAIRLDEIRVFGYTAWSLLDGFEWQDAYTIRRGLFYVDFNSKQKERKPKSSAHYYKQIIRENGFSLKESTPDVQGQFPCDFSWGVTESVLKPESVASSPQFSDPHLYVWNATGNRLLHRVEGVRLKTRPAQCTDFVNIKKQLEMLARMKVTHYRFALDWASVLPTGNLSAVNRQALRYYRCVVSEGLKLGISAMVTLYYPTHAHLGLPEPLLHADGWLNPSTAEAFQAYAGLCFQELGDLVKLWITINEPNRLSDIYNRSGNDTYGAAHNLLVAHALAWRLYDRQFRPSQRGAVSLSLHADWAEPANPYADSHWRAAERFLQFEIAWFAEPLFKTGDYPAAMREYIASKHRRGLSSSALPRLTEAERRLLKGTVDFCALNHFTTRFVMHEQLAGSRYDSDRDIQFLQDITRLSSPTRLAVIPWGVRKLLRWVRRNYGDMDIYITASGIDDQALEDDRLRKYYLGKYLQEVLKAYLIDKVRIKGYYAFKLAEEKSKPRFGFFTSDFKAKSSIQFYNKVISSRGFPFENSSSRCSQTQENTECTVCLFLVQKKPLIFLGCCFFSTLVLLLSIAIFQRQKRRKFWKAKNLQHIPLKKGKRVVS
Chain of human KLB & human FGFR3c on L6 cells (P22607 23-806, chain 2 of 2): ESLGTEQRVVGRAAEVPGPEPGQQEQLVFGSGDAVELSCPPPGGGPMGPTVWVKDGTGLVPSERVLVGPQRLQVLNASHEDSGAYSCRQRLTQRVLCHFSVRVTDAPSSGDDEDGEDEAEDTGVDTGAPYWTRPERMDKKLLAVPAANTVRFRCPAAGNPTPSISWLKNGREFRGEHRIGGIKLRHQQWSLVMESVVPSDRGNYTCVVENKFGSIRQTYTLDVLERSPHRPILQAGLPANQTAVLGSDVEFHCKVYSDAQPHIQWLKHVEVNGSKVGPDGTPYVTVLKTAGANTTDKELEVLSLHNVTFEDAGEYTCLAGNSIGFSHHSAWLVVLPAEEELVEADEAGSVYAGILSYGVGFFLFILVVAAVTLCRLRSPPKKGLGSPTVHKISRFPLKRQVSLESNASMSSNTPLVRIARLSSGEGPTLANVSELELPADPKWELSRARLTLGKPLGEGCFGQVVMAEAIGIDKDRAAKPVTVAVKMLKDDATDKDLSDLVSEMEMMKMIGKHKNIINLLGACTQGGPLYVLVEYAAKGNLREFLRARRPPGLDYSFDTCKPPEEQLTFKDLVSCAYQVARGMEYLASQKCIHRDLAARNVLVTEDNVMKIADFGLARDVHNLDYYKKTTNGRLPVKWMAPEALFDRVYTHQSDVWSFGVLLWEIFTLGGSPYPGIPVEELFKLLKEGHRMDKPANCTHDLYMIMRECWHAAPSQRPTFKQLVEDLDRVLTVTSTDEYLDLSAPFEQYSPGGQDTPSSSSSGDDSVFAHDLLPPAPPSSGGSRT

B1: hAb-23 (antibody, human IgG1, kappa, L234A L235A, V domains shown)
VH: QVQLVQSGAEVKKPGSSVKVSCKASGGTFSSYAISWVRQAPGQGLEWMGGIIPIFGTANYAQKFQGRVTITADESTSTAYMELSSLRSEDTAVYYCARELVSYYYGMDVWGQGTMVTVSS
VL: not shown
notes: from a human natural phage library; human IgG1 (L234A, L235A) / kappa; also called fully human antibody hAb-23
As to B1, in test [1], it took 0.13 nM to reach a half-maximal effect (EC50). In addition, the “binding signal of KLB to Bio-FGF19, % of KLB alone” value in test [2] came out at 99%. Further, the “Activation fold, pERK/total ERK in L6-hKLB&hFGFR3c cells” value (shortened to “Activation fold, pERK/total ERK”) in test [3] was determined as 1.08 fold. The “binding signal of KLB to Bio-FGF21, % of KLB alone” value in test [4] was 113%.

B2: hAb18-8 (antibody, human IgG1, kappa, L234A L235A, V domains shown)
VH: EVQLVQSGAEVKKPGASVKVSCKASGYTFTDYAMHWVRQAPGQRLEWMGVISTYSGTTNYNQNFKGRVTITVDKSASTAYMELSSLRSEDTAVYYCARSGPLDYWGQGTTVTVSS
VL: ENVLTQSPDFQSVTPKEKVTITCRATSSVSSSYLHWYQQKPDQSPKLWIYSTSQLASGVPSRFSGSGSGTDYTLTINSLEAEDAATYYCQQYSGYPLTFGQGTKLEIKR
notes: human IgG1 (L234A, L235A) / kappa
B2 showed an EC50 in test [1] of 1.9 nM. Also, in test [2], the “binding signal of KLB to Bio-FGF19, % of KLB alone” value came out at 101%. Moreover, the “Activation fold, pERK/total ERK” value in test [3] came to 1.41 fold. In test [4], the “binding signal of KLB to Bio-FGF21, % of KLB alone” value was 108%.

B3: hAb99-13 (antibody, human IgG1, kappa, L234A L235A, V domains shown)
VH: EVQLVQSGAEVKKPGASVKVSCKASGYTFTNYGINWVRQAPGQRLEWMGYIYIGNVDIEYNAKFKGRVTITSDTSASTAYMELSSLRSEDTAVYYCARGRGLGHFDVWGQGTTVTVSS
VL: DIQMTQSPSSLSASVGDRVTITCRASKSISKFLAWFQQKPGKTNKLLIYSGSTLQSGVPSRFSGSGSGTDFTLTISSLQPEDFATYYCQQHNEYPWTFGGGTKVEIKR
notes: as for B2
In test [1], B3 had a half-maximal effective concentration (EC50) of 0.27 nM. Also, the “binding signal of KLB to Bio-FGF19, % of KLB alone” value in test [2] is 99%. Besides, the “Activation fold, pERK/total ERK” value in test [3] was 4.95 fold. The “binding signal of KLB to Bio-FGF21, % of KLB alone” value in test [4] amounted to 108%.

The values are drawn from patent publication US20240270874A1 (JIANGSU HENGRUI PHARMACEUTICALS, published 2024).
